# B1: MPIaG: catalytic domain of PlaG, SEQ. ID. NO: 5, protein having both phospholipase and lipase activities, from tidal flat metagenome (protein)
# chain: LNQSDYEKAIDYGKLSAQAYDWDDYAAAHVGMGFFANIDDIKATDFATPNYVEVQSVGGYIDWWGTDGLDFKVFQNTETDDLVVAYKGTEPLSPVDWVADAEQIFGNSEQYQKAVDFARDLSAQVEQYNVQNGLTGDAAMQLSFTGHSLGGGLATASALATGREAMAFDAAGLSQGTINNLGLDIRHASKITNFNVKGDWLSDHNKQMDDTTLGSELAGIVPETKQYGNTYWLEGINDIADFGGWLVPDNNMAVDFAKSILNHAWHVYVYMLENDKFL
# modifications: phospholipase/lipase MPlaG AA
# Key:
# [1] = Expression in E. coli BL21(DE3), Ni-NTA purification and SDS-PAGE
# Protocol: The E. coli BL21(DE3)/pET22b(+)-MPIaG constructed in Example 4 was cultured in a liquid nutritive medium [1% (w/v) trypton, 0.5% (w/v) yeast extract, 0.5% (w/v) NaCl] containing ampicillin (100 μg/ml) until OD600 reached 0.6. IPTG (isopropyl-β-D-thiogalactopyranoside) was added to the culture solution (final conc.: 0.5 mM), followed by further culture for 12 hours. E. coli BL21(DE3)/pET22b(+)-MPIaG was obtained by centrifugation, which was suspended in binding buffer (50 mM Tris-HCl, pH 8, 500 mM NaCl, 10 mM imidazole). The cell suspension was lysed by ultrasonication. The cell lysate was centrifuged to obtain supernatant. The supernatant was loaded on Ni-NTA (nitriloteiacetic acid) column to elute phospholipase and lipase by imidazole gradient, followed by dialysis-concentration. To confirm the purified phospholipase/lipase MPIaG, SDS-PAGE (sodium dodecyl sulfate-polyacrylamide gel electrophoresis) was performed, followed by staining with Coomassie brilliant blue.
# [2] = Spectrophotometric assay with para-nitrophenyl ester substrate; type: biochemical
# Protocol: (§1) First method was pH-stat.
# (§2) To investigate the enzyme activity over pH, the activities were measured in different pH buffers. […] After staying at different pH for 180 minutes, the remaining activity was measured. As a result, the enzyme activity was maintained stably in the pH range of 5˜10 (FIG. 5). Phospholipase and lipase activity over temperature was also investigated. […] The enzyme activity was still observed at 5° C. (39% of maximum activity). When the temperature was raised more than the optimum activity temperature above, the activity was decreased rapidly (FIG. 6). In addition, melting temperature was also investigated by using differential scanning calorimetry (DSC). As a result, the melting temperature was 38.5° C. (FIG. 7).
# Spectrophotometric assay was also performed at room temperature to investigate the activity of MPIaG to para-nitrophenyl ester with various carbon chain lengths, the synthetic substrate. At this experiment, para-nitrophenyl butyrate (C4), para-nitrophenyl caprylate (C8), para-nitrophenyl caprate (C10), para-nitrophenyl laurate (C12), para-nitrophenyl palmitate (C16), and para-nitrophenyl stearate (C18) were used as substrates for the comparison of the activity. 5 mM Ca^2+ was added to the reaction solution. The reaction product para-nitrophenol was continuously measured for 5 minutes at OD450 using DU800 spectrophotometer (Beckman). To exclude the non-enzymatic hydrolysis value of the substrates, the activity was measured without enzyme for every measurement under different conditions, which would be the control reaction.
# [3] = Clear zone on solid medium supplemented with tricaprylin emulsion (lipase activity); type: biochemical; conditions: solid nutritive medium
# Source text: When tricaprylin is decomposed by lipase, clear zone is formed. So, the colonies forming such clear zone were selected.
# (§3) The recombinant plasmid pFosPlaG derived from the metagenome library was isolated in the solid nutritive medium supplemented with tricaprylin emulsion which has been widely used for the isolation/confirmation of lipase gene. To investigate the phospholipase activity of the gene, the purified phospholipase/lipase MPIaG was loaded on the solid medium supplemented with phosphatydilcholine emulsion [0.5% (w/v) phosphatydilcholine, 0.5% (w/v) taurocholic acid, 20 mM CaCl2], followed by observing clear zone to confirm the activity.
# [4] = Clear zone on solid medium supplemented with phosphatydilcholine emulsion (phospholipase activity); type: biochemical; conditions: 0.5% phosphatydilcholine, 0.5% taurocholic acid, 20 mM CaCl2
# Protocol: as §3
# [5] = LC-MS of phosphatidylcholine hydrolysis products (chain length and site specificity); type: biochemical
# Protocol: Specificity of MPIaG over the location and chain length of phospholipid was investigated. To do so, phosphatydilcholine with different carbon chain lengths (C6, C7, C8, and C14) and 1-oleoly-2-palmitoyl-phosphatidylcholine (OPPC) were used. The purified MPIaG was added to 50 mM tris buffer (pH 8.0) containing 5 mM CaCl2 and 150 mM NaCl, followed by enzyme reaction along with 1 mM substrate for 12 hours at 25° C. The reaction product was analyzed by liquid chromatography mass spectrometry (LC-MS) using Finnigan LCQ. Advantage MAX ion trap mass spectrometer (Thermo Fisher Scientific) was equipped with electrospray ionization source. HPLC isolation was performed with HILIC guard column (4×2.0 mm, Phenomenex) and Kinetex HILIC column (2.6 μm, 2.1×100 mm, Phenomenex). The moving phase A was 10 mM ammonium formate whose pH was regulated as 3.0 with formic acid. The moving phase B was acetonitrile. Gradient elution was performed at the flow rate of 0.2 ml/min as follows: 0˜10 min., 10%˜40% A (linear gradient); 10˜20 min., 70% A (isocratic). Column temperature was room temperature, and the injection volume was 10 μL. Mass spectra were obtained from m/z in the negative ion mode 100˜1200 at the maximum ion injection time of 3 microscans and 200 ms.
# [6] = Substrate specificity to various phospholipids, clear zone on solid media with phospholipid emulsions; type: biochemical
# Protocol: To investigate substrate specificity to various phospholipids, the purified phospholipase/lipase MPIaG was added to the solid media respectively supplemented with various phospholipid emulsions. Then, the activity over phospholipid was investigated by comparing the size of clear zone. The phospholipid emulsion was composed of 0.5% (v/v) phospholipid substrate, 0.5% (w/v) taurocholic acid, and 20 mM CaCl2. The substrates used herein were phosphatydilcholine (PC, 99% purity), phosphatidylethanolamine (PE, 97% purity), phosphatidylserine (PS, 97% purity), phosphatidylinositol (PI, 98% purity), phosphatidylglycerol (PG, 99% purity), and phosphatidic acid (PA, 98% purity).
# [7] = pH-stat / pH titration of released fatty acid (hydrolysis of triacylglyceride, olive oil, phosphatidylcholine); type: biochemical; conditions: for specific enzyme activity: pH 8.0, pH titrator
# Protocol: as §1
# The activity of MPIaG to hydrolyze triacylglyceride, olive oil, and phosphatidylcholine was measured by titrating free fatty acid using pH titrator (842 Tirando, Metrohm). By adding 10 mM NaOH solution, pH of the substrate emulsion was regulated to 8.0. Then, a proper amount of enzyme solution was added thereto. Excretion rate of fatty acid was measured by using pH titrator for 5 minutes. […] To exclude the non-enzymatic hydrolysis value of the substrates, the activity was measured without enzyme addition for every measurement under different conditions, which would be the control reaction.
# To further investigate specificity to substrate each having different carbon length, pH titration was performed with triacylglycerides such as tributyrin (C4), tricaprylin (C8), tricaprin (C10), trilaurin (C12), tripalmitin (C16), and triolein (C18:1).
# [8] = Melting temperature by differential scanning calorimetry (DSC); type: physicochemical
# Protocol: as §2
# So, it was expected that the structural stability was increased by calcium ion (FIG. 7).
molecule,measurement,setting,value
B1,solubility of the expressed protein,[1],expressed in a water-soluble form
same,temperature of maximum activity,[2],25 °C
same,temperature up to which the enzyme is active,[2],up to 40 °C
same,"enzyme activity, % of maximum activity",[2]; at 5° C.,39%
same,pH of maximum activity,[2]; different pH buffers,8
same,substrate chain-length preference,"[2]; para-nitrophenyl esters C4-C18, 5 mM Ca^2+",para-nitrophenyl ester having long acyl straight chain
same,pH range in which enzyme activity was maintained stably,[2]; remaining activity after 180 minutes at different pH,5˜10
same,"highest activity, to para-nitrophenyl palmitate (C16)","[2]; room temperature, 5 mM Ca^2+, reference of the fold not stated",approximately 112 times
same,specific activity compared to the full-length phospholipase/lipase PlaG,[2]; synthetic substrate,at least two times increased specific activity
same,clear zone formation on tricaprylin emulsion medium,[3],formed clear zone on both solid media
same,clear zone formation on phosphatydilcholine emulsion medium,[4],clear zone was clearly formed
same,clear zone formation on phosphatydilcholine emulsion medium,[4]; listed as the gene of the present invention,formed clear zone on both solid media
same,"hydrolase activity of phosphatydilcholine to lysophosphatidylcholine, best substrate","[5]; 1 mM substrate, 12 hours, 25° C., 5 mM CaCl2","highest to 1,2-Dioctanoyl-phosphatidylcholine (diC8PC)"
same,hydrolysis site on OPPC (site specificity),"[5]; OPPC, 25° C., 12 hours, LC-MS",phospholipase A1
same,product 2-hexanoyl-lysophosphatidylcholine,"[5]; diC6PC, LC-MS after reaction",10.4%
same,"remaining substrate 1,2-dihexanoyl-phosphatidylcholine","[5]; diC6PC, LC-MS after reaction",89.6%
same,product 2-heptanoyl-lysophosphatidylcholine,"[5]; diC7PC, LC-MS after reaction",49.5%
same,"remaining substrate 1,2-diheptanoyl-phosphatidylcholine","[5]; diC7PC, LC-MS after reaction",50.5%
same,product 2-octanoyl-lysophosphatidylcholine,"[5]; diC8PC, LC-MS after reaction",50.4%
same,"remaining substrate 1,2-dioctanoyl-phosphatidylcholine","[5]; diC8PC, LC-MS after reaction",49.6%
same,product 2-myristoyl-lysophosphatidylcholine,"[5]; diC14PC, LC-MS after reaction",3.5%
same,"remaining substrate 1,2-dimyristoyl phosphatidylcholine","[5]; diC14PC, LC-MS after reaction",96.5%
same,substrate chain-length preference,"[5]; phosphatidylcholines C6, C7, C8, C14",phospholipid having medium length acyl straight chain
same,activity to phospholipid substrate (clear zone),[6]; substrate phosphatidic acid (PA),did not decompose
same,activity to phospholipid substrate (clear zone),[6]; substrate phosphatidylethanolamine (PE),excellent activity
same,activity to phospholipid substrate (clear zone),[6]; substrate phosphatidylglycerol (PG),excellent activity
same,activity to phospholipid substrate (clear zone),[6]; substrate phosphatidylserine (PS),did not decompose
same,activity to phospholipid substrate (clear zone),[6]; substrate phosphatydilcholine (PC),excellent activity
same,interfacial activity,[7]; as the concentration of tributyrin increased,showed interfacial activity
same,specific activity by pH-stat,[7]; substrate Olive oil,114.8 ± 11.3
same,specific activity by pH-stat,[7]; substrate Tributyrin (C4),140 ± 6.4
same,specific activity by pH-stat,[7]; substrate phosphatydilcholine,13.4 ± 1.5
same,specific enzyme activity,[7]; toward olive oil,2957±144 Umg^−1
same,specific enzyme activity,[7]; toward phosphatidylcholine,1735±147 Umg^−1
same,substrate chain-length preference,"[7]; triglycerides C4-C18:1, pH titration",triglyceride having short acyl straight chain
same,hydrolysis of triolein (C18:1),"[7]; triolein, not degraded by esterase",decomposed triolein
same,melting temperature,[8]; 0 mM calcium,38.5 °C
same,melting temperature,[8]; 2 mM calcium ion,47.2 °C
same,melting temperature,[8]; 5 mM calcium ion,49.2 °C

# — patent US9441018B2, “Gene from tidal flat metagenome and a novel protein displaying both phospholipase and lipase activities” (KOREA RESEARCH INSTITUTE OF BIOSCIENCE AND BIOTECHNOLOGY, priority 2011, dated 2016)
